Target: T1, L-TAT-IB1(s)
T1 chain: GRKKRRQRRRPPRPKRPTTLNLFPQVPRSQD

B1: Recombinant and non activated JNK3 (protein)
chain: MSLHFLYYCSEPTLDVKIAFCQGFDKQVDVSYIAKHYNMSKSKVDNQFYSVEVGDSTFTVLKRYQNLKPIGSGAQGIVCAAYDAVLDRNVAIKKLSRPFQNQTHAKRAYRELVLMKCVNHKNIISLLNVFTPQKTLEEFQDVYLVMELMDANLCQVIQMELDHERMSYLLYQMLCGIKHLHSAGIIHRDLKPSNIVVKSDCTLKILDFGLARTAGTSFMMTPYVVTRYYRAPEVILGMGYKENVDIWSVGCIMGEMVRHKILFPGRDYIDQWNKVIEQLGTPCPEFMKKLQPTVRNYVENRPKYAGLTFPKLFPDSLFPADSEHNKLKASQARDLLSKMLVIDPAKRISVDDALQHPYINVWYDPAEVEAPPPQIYDKQLDEREHTIEEWKELIYKEVMNSEEKTKNGVVKGQPSPSGAAVNSSESLPPSSSVNDISSMSTDQTLASDTDSSLEASAGPLGCCR
Q: Which “JNK3 phosphorylation of Elk1 (solid phase kinase assay)” value does the source give for B1 here?
A: a marked exception was the absence of TAT-IB(s) inhibition of JNK3 phosphorylation of Elk1
